Reference: patent US20240400703A1 (Genmab, published 2024)
“And” between values parts separate entries of the source, which are not always exact repeats. Identical values can stand only once. Each block holds one binder with its values, some of them ahead of it.

What was measured:
[1] = biological target: T1, human FcγRIa expressed on cells (human, UniProt P12314 16-374); assay: flow cytometry, FcγRIa-transfected ExpiCHO-S cells, gMFI (PE)
T1 construct: whole, on cells; also called FcγR1a; CD64
Protocol: Data were analyzed using FlowJo software and were visualized using GraphPad Prism.

[2] = biological target: T2, human OX40 expressed on cells (human, UniProt P43489 29-277); assay: flow cytometry, activated human CD4+ T cells, donor 2
T2 construct: also called CD134; TNFRSF4
T2 sequence: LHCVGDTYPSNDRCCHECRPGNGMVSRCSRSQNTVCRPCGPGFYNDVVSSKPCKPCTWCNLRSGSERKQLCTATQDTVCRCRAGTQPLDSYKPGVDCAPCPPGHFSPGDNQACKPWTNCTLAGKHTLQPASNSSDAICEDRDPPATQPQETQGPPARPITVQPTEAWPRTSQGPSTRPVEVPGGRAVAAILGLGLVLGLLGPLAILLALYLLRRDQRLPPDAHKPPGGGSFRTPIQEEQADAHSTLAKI
Protocol: (§1) Healthy human donor PBMCs were purified essentially as described in Example 7. The cell concentration was adjusted to 2×10⁶ cells per mL (final concentration) in assay medium and plated in 6-well plates (Greiner, cat. no. 657160). PBMCs were stimulated with 0.3 μg/mL anti-CD3 ([…] Technologies, cat. no. 60011) and 0.5 μg/mL anti-CD28 antibodies (BioLegend, cat. no. 302934) and cultured for two days at 37° C., 5% CO₂. Next, the PBMCs were harvested, counted and brought to a concentration of 2×10⁶ cells per mL in FACS buffer 1 (DPBS with 2% heat-inactivated FBS and 2 mM ethylenediaminetetraacetic acid [EDTA]). […] After 60 min at RT, the cells were prepared for flow cytometric analyses. To this end, the cells were washed twice with 150 μL FACS buffer 1 and 30 μL/well cell-surface antibody mix (Table 9) in FACS buffer 1 containing antibody against human Fcγ antibody (Table 9) and fixable viability dye eFluor780 (1:1,500) was added. The staining procedures were carried out at 4° C. for 15-20 min protected from light. Stained cells were washed twice with 120-150 μL FACS buffer 1 (5 min, 460×g, RT) and resuspended in 60-100 μL FACS buffer 1 for direct flow cytometric analyses. Flow cytometric data were acquired on a FACSymphony A3 and analyzed with FlowJo software.

[3] = biological target: T2, human OX40 expressed on cells; assay: flow cytometry, loss of sOX40L (2 µg/mL) binding to activated human CD4+ T cells; competitor sOX40L; unit taken from the upper half of the table
Protocol: (§2) Stimulated PBMCs were pelleted, resuspended in FACS buffer 2 (DPBS with 2% heat-inactivated FBS [Sigma-Aldrich, cat. no. F7524] and 2 mM EDTA [Sigma-Aldrich, cat. no. 03690]), and seeded (100,000 cells/well) in round-bottom 96-well plates (VWR International GmbH, cat. no. 734-197). […] Next, cells were washed twice in FACS buffer, and incubated with 30 μL of the antibody panel described in Table 11 diluted in FACS buffer 2 containing 1:1,500 Fixable Viability Stain eFluor 780 at 4° C. for 20 min, protected from light. The cells were subsequently washed twice with 120-150 μL FACS buffer 2 and measured on a BD FACSCelesta flow cytometer using a BD High Throughput sampler and subsequent analysis was done using FlowJo software.

[4] = biological target: T2, human OX40 expressed on cells; assay: flow cytometry, activated human CD4+ T cells, donor 1
[5] = biological target: T2, human OX40 expressed on cells; assay: flow cytometry, loss of sOX40L (2 µg/mL) binding to activated human CD8+ T cells; competitor sOX40L; unit taken from the upper half of the table
Protocol: as §2

[6] = biological target: T2, human OX40 expressed on cells; assay: flow cytometry, human T cells activated 72 h with anti-CD3/CD28 beads
[7] = biological target: T2, human OX40 expressed on cells; assay: cell-based or functional assay
[8] = biological target: T2, human OX40 expressed on cells; assay: flow cytometry, activated human CD8+ T cells, donor 3
Protocol: as §1

[9] = biological target: T2, human OX40 expressed on cells; assay: flow cytometry, activated human CD8+ T cells, without sOX40L, n=3
Protocol: as §2

[10] = biological target: T2, human OX40 expressed on cells; assay: flow cytometry, activated human CD4+ and CD8+ T cells, 2 µg/mL sOX40L
Protocol: as §2

[11] = biological target: T2, human OX40 expressed on cells; assay: flow cytometry, activated human CD4+ T cells, mean of 3 donors
Protocol: as §1

[12] = biological target: T2, human OX40 expressed on cells; assay: flow cytometry, activated human CD4+ T cells, mean of 3 donors; CD4+ T cells

T1 sequence (P12314 16-374): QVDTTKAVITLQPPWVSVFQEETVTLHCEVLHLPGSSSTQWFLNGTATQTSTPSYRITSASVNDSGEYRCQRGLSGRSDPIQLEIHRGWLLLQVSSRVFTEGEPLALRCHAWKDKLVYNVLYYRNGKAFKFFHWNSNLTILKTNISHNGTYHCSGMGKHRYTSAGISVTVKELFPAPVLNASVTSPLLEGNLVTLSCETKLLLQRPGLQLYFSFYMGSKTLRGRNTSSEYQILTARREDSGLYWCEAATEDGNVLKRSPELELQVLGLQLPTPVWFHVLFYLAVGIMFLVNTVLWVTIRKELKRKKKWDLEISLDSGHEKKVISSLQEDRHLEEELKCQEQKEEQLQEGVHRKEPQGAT

binding result [1]: binds
B1: IgG1-CD134-003 (antibody)
heavy: not shown
light: AAVLTQTPSPVSAAVGGTVTIKCQSSQIVVNNNFLSWYQQKPGQPPKLLIYDASNLASGVPDRFSGSGSGTQFTLTISGVQSDDAATYYCLGGYDDDAENAFGGGTEVVVQRTVAAPSVFIFPPSDEQLKSGTASVVCLLNNFYPREAKVQWKVDNALQSGNSQESVTEQDSKDSTYSLSSTLTLSKADYEKHKVYACEVTHQGLSSPVTKSFNRGEC
notes: rabbit-human chimeric IgG1, wild-type Fc; also called parental chimeric antibody

EC50 [2]: 0.0167 µg/mL
IC50 [3]: 0.579 nM
EC50 [4]: 0.0273 µg/mL
IC50 [5]: 0.561 nM
EC50 (read off the curve) [6]: ~0.02 µg/mL
Average EC50 CD4+ T-cell proliferation (17 donors) [7]: 0.013 µg/ml and 0.085 nM
Average EC50 CD8+ T-cell proliferation (17 donors) [7]: 0.017 µg/ml and 0.115 nM
EC50 CD4+ T-cell proliferation, donor 1 [7]: 0.009 µg/ml and 0.057 nM
EC50 CD4+ T-cell proliferation, donor 2 [7]: 0.024 µg/ml and 0.159 nM
EC50 CD4+ T-cell proliferation, donor 3 [7]: 0.012 µg/ml and 0.084 nM
EC50 CD4+ T-cell proliferation, donor 4 [7]: 0.007 µg/ml and 0.048 nM
EC50 CD4+ T-cell proliferation, donor 5 [7]: 0.008 µg/ml and 0.053 nM
EC50 CD4+ T-cell proliferation, donor 6 [7]: 0.006 µg/ml and 0.038 nM
EC50 CD4+ T-cell proliferation, donor 7 [7]: 0.019 µg/ml and 0.129 nM
EC50 CD4+ T-cell proliferation, donor 8 [7]: 0.016 µg/ml and 0.107 nM
EC50 CD4+ T-cell proliferation, donor 9 [7]: 0.007 µg/ml and 0.048 nM
EC50 CD4+ T-cell proliferation, donor 10 [7]: 0.017 µg/ml and 0.111 nM
EC50 CD4+ T-cell proliferation, donor 11 [7]: 0.01 µg/ml and 0.067 nM
EC50 CD4+ T-cell proliferation, donor 12 [7]: 0.009 µg/ml and 0.06 nM
EC50 CD4+ T-cell proliferation, donor 13 [7]: 0.019 µg/ml and 0.125 nM
EC50 CD4+ T-cell proliferation, donor 14 [7]: 0.008 µg/ml and 0.052 nM
EC50 CD4+ T-cell proliferation, donor 15 [7]: 0.02 µg/ml and 0.132 nM
EC50 CD4+ T-cell proliferation, donor 16 [7]: 0.008 µg/ml and 0.053 nM
EC50 CD4+ T-cell proliferation, donor 17 [7]: 0.018 µg/ml and 0.119 nM
EC50 CD8+ T-cell proliferation, donor 1 [7]: 0.028 µg/ml and 0.19 nM
EC50 CD8+ T-cell proliferation, donor 2 [7]: 0.029 µg/ml and 0.195 nM
EC50 CD8+ T-cell proliferation, donor 3 [7]: 0.013 µg/ml and 0.087 nM
EC50 CD8+ T-cell proliferation, donor 4 [7]: 0.007 µg/ml and 0.048 nM
EC50 CD8+ T-cell proliferation, donor 5 [7]: 0.009 µg/ml and 0.058 nM
EC50 CD8+ T-cell proliferation, donor 6 [7]: 0.008 µg/ml and 0.051 nM
EC50 CD8+ T-cell proliferation, donor 7 [7]: 0.041 µg/ml and 0.273 nM
EC50 CD8+ T-cell proliferation, donor 8 [7]: 0.005 µg/ml and 0.033 nM
EC50 CD8+ T-cell proliferation, donor 9 [7]: 0.008 µg/ml and 0.052 nM
EC50 CD8+ T-cell proliferation, donor 10 [7]: 0.016 µg/ml and 0.109 nM
EC50 CD8+ T-cell proliferation, donor 11 [7]: 0.014 µg/ml and 0.095 nM
EC50 CD8+ T-cell proliferation, donor 12 [7]: 0.009 µg/ml and 0.058 nM
EC50 CD8+ T-cell proliferation, donor 13 [7]: 0.052 µg/ml and 0.346 nM
EC50 CD8+ T-cell proliferation, donor 14 [7]: 0.008 µg/ml and 0.054 nM
EC50 CD8+ T-cell proliferation, donor 15 [7]: 0.018 µg/ml and 0.117 nM
EC50 CD8+ T-cell proliferation, donor 16 [7]: 0.011 µg/ml and 0.074 nM
EC50 CD8+ T-cell proliferation, donor 17 [7]: 0.017 µg/ml and 0.116 nM
EC50 [8]: 0.0217 µg/mL
EC50 [9]: 0.017 µg/mL and 0.114 nM
fold change of EC50 in the presence of sOX40L against its absence [10]: ~3 fold
EC50 [11]: 0.0209 µg/mL
EC50 [12]: 0.14 nM
B2: IgG1-CD134-003-HC6LC2-P329R-E345R (antibody)
heavy: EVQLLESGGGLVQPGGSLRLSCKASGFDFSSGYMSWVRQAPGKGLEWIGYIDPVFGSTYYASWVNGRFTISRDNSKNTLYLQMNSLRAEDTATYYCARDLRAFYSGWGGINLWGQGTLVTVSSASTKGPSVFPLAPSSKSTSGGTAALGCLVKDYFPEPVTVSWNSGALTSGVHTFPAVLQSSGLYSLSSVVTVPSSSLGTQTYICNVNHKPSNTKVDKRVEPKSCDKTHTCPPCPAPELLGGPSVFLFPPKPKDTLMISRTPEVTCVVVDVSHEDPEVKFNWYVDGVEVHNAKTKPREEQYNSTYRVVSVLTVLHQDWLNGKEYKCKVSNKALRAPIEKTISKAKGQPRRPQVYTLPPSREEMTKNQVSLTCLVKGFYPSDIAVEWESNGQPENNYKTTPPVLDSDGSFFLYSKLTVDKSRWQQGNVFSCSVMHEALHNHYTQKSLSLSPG
light: AAVLTQSPSSLSASVGDRVTITCQSSQIVVNNNFLSWYQQKPGKAPKLLIYDASNLASGVPDRFSGSGSGTDFTFTISSLQPEDIATYYCLGGYDDDAENAFGGGTKVEIKRTVAAPSVFIFPPSDEQLKSGTASVVCLLNNFYPREAKVQWKVDNALQSGNSQESVTEQDSKDSTYSLSSTLTLSKADYEKHKVYACEVTHQGLSSPVTKSFNRGEC
notes: humanized; human IgG1 with P329R and E345R (Eu numbering), kappa; also called IgG1-CD134-003-HC6LC2-RR
